Here are results for 15 molecules from patent US20130039916A1 (Merck Sharp & Dohme, published 2013).

Assay [1] has as its target "Elastikine" human IL-23 (single chain FLAG-tag:GLU-tag:human p40:elasti-linker:human p19, expressed in 293T … (human, UniProt P29460 23-328)). Nature of the assay: KinExA, solution equilibrium. Here is the method: The equilibrium dissociation constant (Kd) for anti human IL-23 antibodies is determined using the KinExA 3000 instrument. Sapidyne Instruments Inc., Boise Id., USA KinExA uses the principle of the Kinetic Exclusion Assay method based on measuring the concentration of uncomplexed antibody in a mixture of antibody, antigen and antibody-antigen complex. The concentration of free antibody is measured by exposing the mixture to a solid-phase immobilized antigen for a very brief period of time. In practice, this is accomplished by flowing the solution phase antigen-antibody mixture past antigen-coated particles trapped in a flow cell. Data generated by the instrument are analyzed using custom software. Equilibrium constants are calculated using a mathematical theory based on the following assumptions:
98 micron PMMA particles (Sapidyne, Cat No. 440198) are coated with biotinylated rhIL-23 according to Sapidyne “Protocol for coating PMMA particles with biotinylated ligands having short or nonexistent linker arms”. To make biotinylated rhIL-23, EZ-link TFP PEO-biotin (Pierce, Cat. No. 21219) is used according to manufacturer's recommendations (Pierce bulletin 0874). Experimental procedures are done according to the KinExA 3000 manual.
KinExA experiments are performed essentially as described at Example 3 of U.S. Patent Application Publication No. 2007/0048315.

For assay [2], the target named is T1, "Non-linked" human IL-23 (human p40 coexpressed in 293T cells with human p19:FLAG-tag peptide) (human, UniProt P29460 23-328).
T1 sequence 1: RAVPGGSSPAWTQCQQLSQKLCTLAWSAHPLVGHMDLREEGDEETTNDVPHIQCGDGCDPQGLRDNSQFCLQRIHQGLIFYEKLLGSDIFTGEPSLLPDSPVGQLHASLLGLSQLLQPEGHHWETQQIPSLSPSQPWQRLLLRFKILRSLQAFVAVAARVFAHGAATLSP
T1 sequence 2: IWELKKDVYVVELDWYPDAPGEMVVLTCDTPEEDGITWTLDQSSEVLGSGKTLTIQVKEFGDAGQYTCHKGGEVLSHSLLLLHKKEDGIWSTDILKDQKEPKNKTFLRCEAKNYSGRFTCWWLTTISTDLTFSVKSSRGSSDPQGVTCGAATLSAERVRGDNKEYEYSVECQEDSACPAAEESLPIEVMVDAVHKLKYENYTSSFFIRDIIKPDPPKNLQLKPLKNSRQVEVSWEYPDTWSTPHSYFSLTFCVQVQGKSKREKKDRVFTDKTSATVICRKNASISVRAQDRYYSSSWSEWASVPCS
Put plainly: cell-based or functional assay.

The target of assay [3] is T2, human IL-23 (form not stated) (human, UniProt P29460 23-328).
T2 sequence 1: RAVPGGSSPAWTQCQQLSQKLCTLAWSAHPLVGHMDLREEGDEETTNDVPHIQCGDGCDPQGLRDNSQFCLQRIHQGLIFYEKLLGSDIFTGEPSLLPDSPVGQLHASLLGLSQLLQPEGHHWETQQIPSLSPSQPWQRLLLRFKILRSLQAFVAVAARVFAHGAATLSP
T2 sequence 2: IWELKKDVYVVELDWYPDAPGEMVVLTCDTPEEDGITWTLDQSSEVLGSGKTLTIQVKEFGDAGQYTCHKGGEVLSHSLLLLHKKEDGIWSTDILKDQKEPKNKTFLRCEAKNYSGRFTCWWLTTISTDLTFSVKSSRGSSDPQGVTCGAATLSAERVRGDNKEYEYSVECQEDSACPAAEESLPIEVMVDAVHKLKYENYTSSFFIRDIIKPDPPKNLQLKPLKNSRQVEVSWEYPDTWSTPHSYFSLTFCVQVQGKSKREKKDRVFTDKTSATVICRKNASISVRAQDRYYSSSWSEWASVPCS
Nature of the assay: cell-based or functional assay.

Sequence of "Elastikine" human IL-23 (single chain FLAG-tag:GLU-tag:human p40:elasti-linker:human p19, expressed in 293T … (P29460 other isoform, or with tags, fused parts or gaps): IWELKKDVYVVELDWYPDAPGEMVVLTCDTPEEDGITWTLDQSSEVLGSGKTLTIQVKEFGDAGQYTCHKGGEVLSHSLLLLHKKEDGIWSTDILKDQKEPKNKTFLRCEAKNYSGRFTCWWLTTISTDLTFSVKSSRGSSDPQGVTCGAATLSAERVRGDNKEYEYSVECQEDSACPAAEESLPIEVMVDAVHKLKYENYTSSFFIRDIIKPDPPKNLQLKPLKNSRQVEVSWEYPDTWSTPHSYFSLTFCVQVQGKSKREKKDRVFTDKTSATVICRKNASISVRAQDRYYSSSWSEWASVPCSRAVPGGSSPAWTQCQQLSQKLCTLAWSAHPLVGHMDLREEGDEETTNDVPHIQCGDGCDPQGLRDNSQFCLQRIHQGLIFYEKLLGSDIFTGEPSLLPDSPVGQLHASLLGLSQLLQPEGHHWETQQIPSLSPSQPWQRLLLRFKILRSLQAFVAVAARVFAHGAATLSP

B1: mouse anti-human IL-23p19 antibody 7D7 (antibody, V domains shown)
VH: QVQLQQSGAELAKPGASVKLSCKASGYTFTNYWMDWVKQRPGQGLEWIGYINPSSGYVEYNQKFKYKATLTADKTSSTAYMQLSSLTYDDSAVYYCARSPPYYYANTYWSFDVWGTGTTVTVSS
VL: DIGLTQSPASLAVSLGQRATISCRASKSVSTSGYSFMHWYQQKPGQPPKLLIYLASNLESGVPARFSGSGSGTDFILNIHPVEEEDAATYYCQHSRELPLAFGAGTKLELTP
notes: also called m7D7
The Kd is a measure of binding affinity in units of concentration. For the molecule B1, the affinity in assay [1], expressed as Kd, was 2.7 pM.

B2: mouse anti-human IL-23p19 antibody 8E9 (antibody, V domains shown)
VH: EVQLQQSGPELVKPGASVKMSCKASGYTFTAYLIHWVKQSHGKSLEWIGYINPNNGGTNYNQKFKDKATLTVNKSSATAYMELRSLTSEDSAVFYCSSNWDLDYWGRGTTLTVSS
VL: DIVMTQSPATLSVTPGDRVSLSCRASQSIGDYLHWYQQKLHESPRLLIKYASRSISGIPSRFSGSGSGSYFTLSINSVEAEDVGVYFCQNGHSFPFTFGSGTKLEIKR
For B2, in assay [2], the “IC50 (pM), blocking of Ba/F3 cell proliferation” value (shortened to “IC50 (pM), blocking”) worked out at 8 pM. For the same molecule, the “Splenocyte assay IC50 (IL-17 production by mouse splenocytes)” value (shortened to “Splenocyte assay IC50”) in assay [3] came out at 34 pM.

B3: mouse anti-human IL-23p19 antibody 49A10 (antibody, V domains shown)
VH: EVQLQQSGPELVKPGASVKISCKASGYTFTDYYMNWVKQSHGKSLEWFGDINPNNGDTSYNQKFKGKATLTVDKSSSTAYMELRSLTSEDSADYYCARPHYRNWYFDVWGTGTTVIVSS
VL: DIVLTQSPASLVVSLGQRATISCRASKSVSTSGYSFLNWYQQKPGQPPKLLIYLASNLESGVPARFSGSGSGTDFTLNIHPVEAEDATTYYCQHSRELPLTFGSGTKLEMKR
notes: also called m49A10
The molecule B3 had a Kd in assay [1] of 7.4 pM. In other words, the picomolar range.

B4: mouse anti-human IL-23p19 antibody 17G8 (antibody, V domains shown)
VH: QAQLQQSGSELARPGASVKLSCKASGYTFTSYGIKWVKQRTGQGLEWIGEIFPRSGQTIYNENFKGKATLTADKSSSTAYMELRSLTSEDSAVYFCAANWDLDYWGQGTILTVSS
VL: DIMMTQSPATLSVTPGDRVSLSCRASQSISDYLHWYRQKSHESPRLLIKYASQSISGIPSRFSGSGSGSDFTLSINSVEPEDVGIYYCQNGHSFPYTFGGGTKLEIKR
Consider B4, for which, in assay [2], the “IC50 (pM), blocking” value stood at 3 pM. The “Splenocyte assay IC50” value in assay [3] worked out at 18 pM.

B5: mouse anti-human IL-23p19 antibody 15G2 (antibody, V domains shown)
VH: EVQLQQSGPELVKPGASVKMSCKASGYTFTNYLMHWVKQKPGQGLEWIGYINPYNDGTNYNEKFKGKATLTSDKSSSTAYMELSSLTSEDSAIYFCTSNWDLDYWGQGTTLTVSS
VL: DIVMTQSPATLSVTPGDRVSLSCRASQSISDYLHWYQQKSHESPRLLIKYASQSISGIPSRFSGSGSGSDFILNINSVEPEDVGVYYCQNGHSFPYTFGGGTKLEIKR
As to B5, in assay [2], the “IC50 (pM), blocking” value came to 133 pM. In assay [3], the “Splenocyte assay IC50” value is 95 pM.

B6: mouse anti-human IL-23p19 antibody 1D6 (antibody, V domains shown)
VH: EVQLQQSGPDLVKPGASVKMSCKASGYTFTAYLIHWVKRSHGKSLDWIGYINPNDGVTSYNQKFKGKATLTVNKSSGTAYMELRSLTSEDAAVYYCTLNWDLDYWGQGTTLTVSS
VL: DIVMTQSPATLSVTPGDRVSLSCRASQSISDYLHWYQQKSHESPRLLIKYASQSISGIPSRFSGSGSGSDFTLSITNVEPEDVGIYYCQNGHSFPFTFGSGTKLEIKR
As to B6, the “IC50 (pM), blocking” value in assay [2] worked out at 16 pM. Moreover, the “Splenocyte assay IC50” value in assay [3] came to 27 pM.

B7: mouse anti-human IL-23p19 antibody 2G12 (antibody, V domains shown)
VH: EVQLQQSGPELVKPGASVKMSCKASGYTFTCCILHWVKQKPGQGLEWIGYINPYNDGTKYNEKFKGKATLTSDKSSRTAYMELSSLTSEDSAVYYCARRWDEAYWGQGTLVTVSA
VL: DIVMTQSPATLSVTPGDRVSLSCRASQSISAYLHWYQQKSHESPRLLIKYASQSISGIPSRFSGSGSGSDFTLSINSVEPEDVGIYYCQNGHSFPFTFGSGTKLEIKR
As for B7, the “IC50 (pM), blocking” value in assay [2] came to 183 pM. Besides, in assay [3], the “Splenocyte assay IC50” value came out at 106 pM.

B8: mouse anti-human IL-23p19 antibody 2C6 (antibody, V domains shown)
VH: EVQLQQSGPELVKPGASVKMSCKASGYTFTRYLIHWVKQKPGQGLEWIGYVNPYNDGTNYNEKFRGKATLTSDKSSSTAYMELSSLTSEDSAVYYCTSNWDLNYWGQGTTLTVSS
VL: DIVMTQSPATLSVTPGDRVSLSCRASQSISDYLYWYQQKSHESPRLLIKYASQSISGIPSRFSGSGSGSDFTLSINSVEPEDVGVYFCQNGHSFPFTFGSGTKLEIKR
Regarding B8, in assay [2], the “IC50 (pM), blocking” value was 11 pM. Moreover, the “Splenocyte assay IC50” value in assay [3] amounted to 37 pM.

B9: mouse anti-human IL-23p19 antibody 20H7 (antibody, V domains shown)
VH: QAQLQQSGGELARPGASVKLSCKASGYTFTNYGIKWVKQRTGQGLEWIGEIFPRSGQTIYNEKFKGKATLTADKSSSTAYMELRSLTFEDSAVYFCAANWDLDYWGQGTILTVSS
VL: DIMMTQSPATLSVTPGDRVSLSCRASQSISDYLHWYRQKSHESPRLLIKYASQSISGIPSRFSGSGSGSDFTLSINSVEPEDVGVYFCQNGHSFPYTFGGGTKLEIKR
Consider B9, for which the “IC50 (pM), blocking” value in assay [2] was determined as 3 pM. The “Splenocyte assay IC50” value in assay [3] was determined as 33 pM.

B10: mouse anti-human IL-23p19 antibody 18E1 (antibody, V domains shown)
VH: EVQLQQSGPELVKPGASVKMSCKASGNTFTRYVMNWVKQKPGQGLEWIGYINPYNDGTNYNEKFKGKATLTSDKSSTTAYMELSSLTSEDSAVYYCVHNWDLDYWGQGTTLTVSS
VL: DIVMTQSPATLSVTPGDRVSLSCRASQSISHYLYWYQQKSHESPRLLIKYASQSISGIPSRFSGSGSGSDFTLSINSVEPEDVGMYYCQNGHSFPYTFGGGTKLEIKR
As to B10, in assay [2], the “IC50 (pM), blocking” value was 48 pM. Besides, the “Splenocyte assay IC50” value in assay [3] turned out to be 92 pM.

B11: mouse anti-human IL-23p19 antibody 3C4 (antibody, V domains shown)
VH: QVQLQQSGGELARPGASVKLSCKASGYTFTSYGIKWVKQRFGQGLEWIGEIFPRGGNTYYNEKFKGKATLTADKSSSTAYMELRSLTSEDSAVYFCTANWDLDYWGQGTTLTVSS
VL: DIVMTQSPATLSVTPGDRVSLSCRASQSISDYLHWYQQKSHESPRLLIKYASQSISGIPSRFSGSGSGSDFTLSINSVESEDVGVYYCQNGHSFPFTFGSGTKLKIKR
Consider B11, for which, in assay [2], the “IC50 (pM), blocking” value was found to be 12 pM. Also, in assay [3], the “Splenocyte assay IC50” value came out at 14 pM.

B12: mouse anti-human IL-23p19 antibody 20A4 (antibody, V domains shown)
VH: QAQLQQSGGELARPGASVKLSCKASGYTFTSYGIKWVKQGTGQGLEWIGEIFPRSGQTYYNEKFKGKATLTADKSSSTAYMELRSLTSEDSAVYFCASNWDLDYWGQGTILTVSS
VL: DIVMTQSPATLSVTPGDRVSLSCRASQSISDFLHWYRQKSHESPRLLIKYVSQSISGIPSRFSGSGSGSDFTLSINSVDPEDVGVYYCQNGHSFPYTFGGGTKLEIKR
As for B12, the “IC50 (pM), blocking” value in assay [2] stood at 5 pM. Moreover, the “Splenocyte assay IC50” value in assay [3] came to 24 pM.

B13: mouse anti-human IL-23p19 antibody 16F7 (antibody, V domains shown)
VH: EVQLVESGGDLVKPGGSLKLSCAASGFIFNSYGMSWVRQTPDKRLEWVATISSGGRNTYYPDSVKGRFTISRDNAKNTLYLQMSSLKSEDTAMYYCARQGGYEGYVDVWGIGTTVTVSS
VL: DIVMTQSHRFMSTSVGDRVSITCKASQDVSSAVAWYQQKPGQSPNLLIYSASFRNTGVPDRFTGSGSGTDFTFTISGVQAEDLAVYYCQQHHSTPLTFGAGTKLELKR
Take B13: the “IC50 (pM), blocking” value in assay [2] was 141 pM. Moreover, in assay [3], the “Splenocyte assay IC50” value worked out at 155 pM.

B14: mouse anti-human IL-23p19 antibody 14A3 (antibody, V domains shown)
VH: EVILVESGGGFVKPGGSLKLSCAASGFTFSNYGMSWVRQTPDKGLEWVATISTGGRYIYYSDTVKGRFTISRDNAKSTLYLKMSSLRSEDTAVHFCARHEGDRYYGWYFDVWGAGTTVTVSS
VL: DIVLTQSPASLAVSLGQRATISCKASQSVDYDGESYMNWYQQKPGQPPKLLIYTSSSLASGIPARFSGSGSGTNFTLNIHPVEEEDAATYCCQQGNEDLFTFGSGTKLEIKR
Turning to B14, the “IC50 (pM), blocking” value in assay [2] is 135 pM. Further, the “Splenocyte assay IC50” value in assay [3] was found to be 53 pM.

B15: mouse anti-human IL-23p19 antibody 12C11 (antibody, V domains shown)
VH: EVMLVESGGGLVKPGGSLKLSCAASGFTFSNYGMSWVRQSPERGLEWVATISTGGRYTFYSDTVKGRFTISRDNARNTLYLKMSSLISEDTAVHYCARHEGDTYYGWYFDVWGAGTTVTVSS
VL: DIVLTQSPASLAVSLGQRATISCKASHSVDYDVDSFMNWYQQKPGQPPKLLIFASSSLESGIPARFSGSGSGTNFILNIHPVEEEDAATYYCQQGNEDLFTFGSGTKLEIKR
Regarding B15, the “IC50 (pM), blocking” value in assay [2] came out at 57 pM. Besides, in assay [3], the “Splenocyte assay IC50” value was found to be 79 pM.
